Drawing on publication PMC8748450, “Aminoacyl chain translocation catalysed by a type II thioesterase domain in an unusual non-ribosomal peptide synthetase” (Nature Communications, 2022), this text covers Kd for three molecules.

Usually Kd stands for the equilibrium constant for the complex coming apart. Low values mean higher affinity, high ones lower affinity.

Conditions in all cases: both partners purified
The target of assay [1] is T1, apo-LgnB-A1-T0 didomain (NRPS subunit LgnB) (RED-tris-NTA label (in the MST experiment only)).
T1 construct: LgnB, NRPS subunit with domains A1-T0, encoded by lgnB of the legonmycin (lgn) biosynthetic gene cluster, amplified from cosmid 7G1; about 65 kDa; apo form (no phosphopantetheine); Cloned into EcoRI/HindIII of pET-28a(+); MA37; source: E. coli BL21-CodonPlus (DE3)-RP, purified (Ni-NTA; gel filtration on Superdex 75 for ITC); not shown: His6, N-terminal, kept
Nature of the assay: MST; LgnB labelled with RED-tris-NTA, 25 nM, as target; LgnA as ligand, 10 to 0.000305 µM; HBS-ET (10 mM HEPES, 150 mM NaCl, 3 mM EDTA, 0.005% Tween-20, pH 8.0); 25 °C; Monolith NT.115.

The target of assay [2] is T2, apo-LgnD (NRPS subunit, C1-T1-C2-A2-T2-TE).
T2 construct: LgnD, NRPS subunit with domains C1-T1-C2-A2-T2-TE, encoded by lgnD of the legonmycin (lgn) biosynthetic gene cluster, amplified from cosmid 7G1; about 207 kDa; apo form (no phosphopantetheine); Cloned into NdeI/XhoI of pEHISTEVa; MA37; also called full-length LgnD; source: E. coli BL21-CodonPlus (DE3)-RP, purified (Ni-NTA; gel filtration on Superdex 75 for ITC)
Kind of assay: ITC; LgnA (125 µM) titrated into LgnD or truncated LgnD (25 µM), also into LgnB (concentrations for LgnB not told); thirteen 3 µL injections, 25 °C; one set binding model; MicroCal PEAQ-ITC. (In ITC the heat of successive injections is recorded.)

The target in assay [3] is T3, apo-LgnD-C1-T1 didomain (truncated LgnD).
T3 chain: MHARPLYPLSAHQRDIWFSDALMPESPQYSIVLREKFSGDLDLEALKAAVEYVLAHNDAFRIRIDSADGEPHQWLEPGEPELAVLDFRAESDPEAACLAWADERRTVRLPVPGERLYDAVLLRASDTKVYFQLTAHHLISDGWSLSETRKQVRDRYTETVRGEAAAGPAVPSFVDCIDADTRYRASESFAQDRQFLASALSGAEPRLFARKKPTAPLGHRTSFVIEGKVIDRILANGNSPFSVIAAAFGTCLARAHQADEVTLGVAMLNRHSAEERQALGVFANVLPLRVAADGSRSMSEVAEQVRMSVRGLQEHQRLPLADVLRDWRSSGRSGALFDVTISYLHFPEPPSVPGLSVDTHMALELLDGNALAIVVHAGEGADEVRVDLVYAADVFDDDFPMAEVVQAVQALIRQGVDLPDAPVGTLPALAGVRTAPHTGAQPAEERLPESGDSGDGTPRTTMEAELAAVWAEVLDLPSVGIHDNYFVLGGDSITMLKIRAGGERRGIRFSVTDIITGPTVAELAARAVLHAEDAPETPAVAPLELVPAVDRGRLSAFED
The assay is described as above.

Assay [4] deals with T4, LgnD-T1 domain (truncated LgnD).
T4 chain: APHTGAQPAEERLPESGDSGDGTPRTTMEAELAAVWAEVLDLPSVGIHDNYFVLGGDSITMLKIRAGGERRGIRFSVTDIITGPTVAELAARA
The description is as above.

T1 sequence (main, as listed by the source): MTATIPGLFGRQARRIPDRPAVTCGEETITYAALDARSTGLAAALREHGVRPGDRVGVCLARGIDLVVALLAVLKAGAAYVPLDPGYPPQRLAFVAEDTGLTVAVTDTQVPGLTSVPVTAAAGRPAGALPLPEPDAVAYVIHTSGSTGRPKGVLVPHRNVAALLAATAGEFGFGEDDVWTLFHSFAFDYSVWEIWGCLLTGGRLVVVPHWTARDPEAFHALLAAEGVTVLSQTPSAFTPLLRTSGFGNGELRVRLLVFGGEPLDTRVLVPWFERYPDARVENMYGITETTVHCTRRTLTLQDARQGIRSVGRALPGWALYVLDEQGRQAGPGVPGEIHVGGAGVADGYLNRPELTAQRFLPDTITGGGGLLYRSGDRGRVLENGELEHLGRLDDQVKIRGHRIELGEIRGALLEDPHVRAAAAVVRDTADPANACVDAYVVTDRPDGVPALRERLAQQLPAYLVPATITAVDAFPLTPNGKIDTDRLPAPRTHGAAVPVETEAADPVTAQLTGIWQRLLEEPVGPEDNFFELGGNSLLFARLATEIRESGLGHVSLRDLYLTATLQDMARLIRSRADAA

B1: LgnA, type II thioesterase (TEII) orthologue (enzyme)
chain: MPVTLLCIPYAGAGASLFRRWKRHPFQHMDVAAVQLPGREELFADGPCTSMSELVDLCAGHIRELPQDAPFALFGHSFGALVAYETAQRLAAEGLRLPERLIVSGAAAPWLPRPVTDADSLSDDQFVARVRDVVGYDHPALHDAELRGLLLPSLRADLSISDRYAPGSTDPLPVPLTVLRGSDDRLVSRQDVELWAKAASQPTELIELPGDHMYFSLDPKPLLAELDAVFARSAA
For the molecule B1, the values for the Kd in assay [1] and in assay [2] were 1.7 ± 0.813 µM and 2.55 ± 0.096 µM, respectively.

B2: LgnA, type II thioesterase (TEII) orthologue (enzyme)
chain: MPVTLLCIPYAGAGASLFRRWKRHPFQHMDVAAVQLPGREELFADGPCTSMSELVDLCAGHIRELPQDAPFALFGHSFGALVAYETAQRLAAEGLRLPERLIVSGAAAPWLPRPVTDADSLSDDQFVARVRDVVGYDHPALHDAELRGLLLPSLRADLSISDRYAPGSTDPLPVPLTVLRGSDDRLVSRQDVELWAKAASQPTELIELPGDHMYFSLDPKPLLAELDAVFARSAA
modifications: apo form (no phosphopantetheine on Ser492)
In the case of B2, binding in assay [3] was put at a Kd of 1.01 ± 0.227 µM.

B3: LgnA, type II thioesterase (TEII) orthologue (enzyme)
chain: MPVTLLCIPYAGAGASLFRRWKRHPFQHMDVAAVQLPGREELFADGPCTSMSELVDLCAGHIRELPQDAPFALFGHSFGALVAYETAQRLAAEGLRLPERLIVSGAAAPWLPRPVTDADSLSDDQFVARVRDVVGYDHPALHDAELRGLLLPSLRADLSISDRYAPGSTDPLPVPLTVLRGSDDRLVSRQDVELWAKAASQPTELIELPGDHMYFSLDPKPLLAELDAVFARSAA
modifications: apo form (no phosphopantetheine on Ser492 of LgnD); limits from primers 28a-LgnD_T1-F/R
In assay [4], B3 yielded a Kd of 7.21 ± 1.61 µM.
